Measurements reported in patent publication US20120094377A1 (EVROGEN JSC, published 2012).

Legend:
[1] = molecular target: the molecule itself; assay: FPLC gel filtration of purified protein (homodimerization)
[2] = molecular target: the molecule itself; assay: FPLC gel filtration, Superdex 200 (self-association)
Experimental: Gel filtration chromatography was performed using a Superdex 200 10/300 GL column (Amersham Biosciences), equilibrated with 40 mm Tris-HCl (pH 7.5), 150 mm NaCl buffer at a flow rate of 0.4 ml/min. Apparent molecular masses were calculated by interpolating an elution volume versus log (molecular mass) calibration curve using ferritin (440 kDa), catalase (232 kDa), aldolase (158 kDa), BSA (67 kDa), ovalbumin (43 kDa), chymotrypsinogen A (25 kDa), and ribonuclease A (13.7 kDa). 200 uL of each fluorescent protein at concentration 1 mg/ml were loaded.

| Protein | binding result [1] | binding result [2] |
| --- | --- | --- |
| mKate2 protein (other, Engineered far-red fluorescent protein derived from Entacmaea quadricolor eqFP578; The partner is a second copy of the same protein (self-association / dimerization seen by FPLC)) MVSELIKENMHMKLYMEGTVNNHHFKCTSEGEGKPYEGTQTMRIKAVEGGPLPFAFDILATSFMYGSKTFINHTQGIPDFFKQSFPEGFTWERVTTYEDGGVLTATQDTSLQDGCLIYNVKIRGVNFPSNGPVMQKKTLGWEASTETLYPADGGLEGRADMALKLVGGGHLICNLKTTYRSKKPAKNLKMPGVYYVDRRLERIKEADKETYVEQHEVAVARYCDLPSKLGHR | binds |  |
| mKate2.7C (other, A vector His tag from pQE30 is probably present but not described; It was tested for self-association by FPLC) MVSELIKENMPMKLYMEGTVNNHHFKCTSEGEGKPYEGTQTMRIKVVEGGPLPFAFDILATSFMYGSRTFIKHPPGIPDFFKQSFPEGFTWERVTTYEDGGVLTATQDTSLQDGCLIYNVKVRGVNFPANGPVMQKKTLGWEASTETMYPADGGLEGACDMALKLVGGGHLICNLETTYRSKKPATNLKMPGVYNVDHRLERIKEADDETYVEQHEVAVARYSTGGAGDGGK |  | no binding (tested: >1 mg/ml) |
| mKate2.5 (other, A vector His tag from pQE30 is probably present but not described; It was tested for self-association by FPLC) MVSELIKENMHMKLYMEGTVNNHHFKCTSEGEGKPYEGTQTMRIKVVEGGPLPFAFDILATSFMYGSKTFINHPQGIPDFFKQSFPEGFTWERVTTYEDGGVLTATQDTSLQDGCLIYNVKIRGVNFPANGPVMQKKTLGWEASTETLYPADGGLEGACDMALKLVGGGHLICNLETTYRSKKPAKNLKMPGVYNVDRRLERIKEADNETYVEQHEVAVARYSTGGAGDGGK |  | no binding (tested: >1 mg/ml) |
